Numbered stars: 1 amine (or outer) side, 2 acyl side, 3 side chain; on linkers, the order of the positions; unused ones are H or OH. Bridge positions count the residues as written; N and C are the ends. Square brackets hold non-standard residues; d marks the D form. Ends that are not written are not given here. * marks the point of attachment. (3-Chloro-Ph)G = 3-chlorophenylglycine, O=C([C@@H](N[*:1])c1cccc(Cl)c1)[*:2]; Phe(2,5-diF) = O=C([C@H](Cc1cc(F)ccc1F)N[*:1])[*:2]; NH(CH2CH2O)4CH2CO = O=C(COCCOCCOCCOCCN[*:1])[*:2]; Pro(cis-4-CF3) = O=C(O)[C@@H]1C[C@H](C(F)(F)F)CN1; Pro(4-spirocPr) = O=C(O)[C@@H]1CC2(CC2)CN1; C18 diacid = O=C(O)CCCCCCCCCCCCCCCCC(=O)*; Oic = O=C(O)[C@@H]1C[C@@H]2CCCC[C@@H]2N1; tBuAla = CC(C)(C)C[C@H](N)C(=O)O; Aad = N[C@@H](CCCC(=O)O)C(=O)O; Pen = CC(C)(S)[C@H](N)C(=O)O; PEG3 = NCCOCCOCCOCCC(=O)O; Orn = NCCC[C@H](N)C(=O)O; Sar = CNCC(=O)O
T1: Recombinant human MASP1 enzyme (fragment corresponding to amino acids 297-699, C-terminal His Tag) (human, UniProt P48740 297-699)
T1 sequence: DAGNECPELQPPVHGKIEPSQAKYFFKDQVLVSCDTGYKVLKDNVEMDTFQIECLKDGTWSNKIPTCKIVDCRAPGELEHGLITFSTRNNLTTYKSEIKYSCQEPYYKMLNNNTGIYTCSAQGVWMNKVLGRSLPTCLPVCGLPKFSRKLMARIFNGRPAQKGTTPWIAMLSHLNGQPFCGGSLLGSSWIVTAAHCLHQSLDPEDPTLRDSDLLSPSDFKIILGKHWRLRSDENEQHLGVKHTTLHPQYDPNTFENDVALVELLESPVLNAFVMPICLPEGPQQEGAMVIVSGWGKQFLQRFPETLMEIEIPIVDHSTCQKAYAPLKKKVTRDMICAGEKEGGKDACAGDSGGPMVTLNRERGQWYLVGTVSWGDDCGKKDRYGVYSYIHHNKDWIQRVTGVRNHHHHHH


Tests used:
[1] = target: T1, Recombinant human MASP1 enzyme …; assay: cell-based or functional assay
[2] = target: Recombinant human MASP2 enzyme (fragment corresponding to amino acids 297-686, C-terminal His Tag) (human, UniProt O00187 297-686); assay: cell-based or functional assay
Sequence of Recombinant human MASP2 enzyme (fragment corresponding to amino acids 297-686, C-terminal His Tag) (O00187 other isoform, or with tags, fused parts or gaps limits assumed): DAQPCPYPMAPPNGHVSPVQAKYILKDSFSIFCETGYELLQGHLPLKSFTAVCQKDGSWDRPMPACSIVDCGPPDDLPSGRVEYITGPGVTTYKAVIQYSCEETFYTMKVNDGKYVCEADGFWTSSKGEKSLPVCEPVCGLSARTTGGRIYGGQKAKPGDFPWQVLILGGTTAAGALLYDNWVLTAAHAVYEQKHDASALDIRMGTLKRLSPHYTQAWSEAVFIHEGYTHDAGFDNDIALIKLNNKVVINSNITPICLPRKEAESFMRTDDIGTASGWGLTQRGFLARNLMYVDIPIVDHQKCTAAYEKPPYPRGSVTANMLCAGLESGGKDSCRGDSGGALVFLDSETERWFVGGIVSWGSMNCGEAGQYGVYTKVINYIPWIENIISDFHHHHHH

human MASP1 IC50 [1] [nM]	human MASP2 IC50 [2] [nM]	Binder
65	70	[Sar]ICSRS[(2S)‑2‑Amino‑5‑methyl‑hexanoic acid]PPI[Pen]IPD-OH (disulfide 3-11) [((N-Me)G)-IC+SRS-((2S)-2-Amino-5-methyl-hexanoic acid)-PPI-(Pen)+IPD-OH]
6.2	76	[Sar]ICSRS[tBuAla]PPI[Pen]IP[NH(CH2CH2O)4CH2CO]-OH (disulfide 3-11; N-terminus assumed; SMILES CC[C@H](C)[C@H](NC(=O)CNC)C(=O)N[C@H]1CSSC(C)(C)[C@@H](C(=O)N[C@H](C(=O)N2CCC[C@H]2C(=O)NCCOCCOCCOCCOCC(=O)O)[C@@H](C)CC)NC(=O)[C@H]([C@@H](C)CC)NC(=O)[C@@H]2CCCN2C(=O)[C@@H]2CCCN2C(=O)[C@H](CC(C)(C)C)NC(=O)[C@H](CO)NC(=O)[C@H](CCCNC(=N)N)NC(=O)[C@H](CO)NC1=O) [((N-Me)G)-IC+SRS-((tBu)A)-PPI-(Pen)+IP-(PEG4-CH2CO2H(15 atoms))-OH]
4.4	22	[dA]ICSRS[tBuAla]P[Pro(4-spirocPr)]I[Pen]IPD-OH (disulfide 3-11; N-terminus assumed; SMILES CC[C@H](C)[C@H](NC(=O)[C@@H](C)N)C(=O)N[C@H]1CSSC(C)(C)[C@@H](C(=O)N[C@H](C(=O)N2CCC[C@H]2C(=O)N[C@@H](CC(=O)O)C(=O)O)[C@@H](C)CC)NC(=O)[C@H]([C@@H](C)CC)NC(=O)[C@@H]2CC3(CC3)CN2C(=O)[C@@H]2CCCN2C(=O)[C@H](CC(C)(C)C)NC(=O)[C@H](CO)NC(=O)[C@H](CCCNC(=N)N)NC(=O)[C@H](CO)NC1=O) [aIC+SRS-((tBu)A)-P-((6S)-5-Azaspiro[2.4]heptane-6-carboxylic acid)-I-(Pen)+IPD-OH]
1.7	27	AICSRSL[(1S,2S,5R)‑3‑Azabicyclo(3.1.0)hexane‑2‑carboxylic acid]PI[Pen]IPD-OH (disulfide 3-11) [AIC+SRSL-((1S,2S,5R)-3-Azabicyclo[3.1.0]hexane-2-carboxylic acid)-PI-(Pen)+IPD-OH]
1000	1000	[Sar]FCTRK[tBuAla][Pen]YPD-OH (disulfide 3-8; N-terminus assumed; SMILES CNCC(=O)N[C@@H](Cc1ccccc1)C(=O)N[C@H]1CSSC(C)(C)[C@@H](C(=O)N[C@@H](Cc2ccc(O)cc2)C(=O)N2CCC[C@H]2C(=O)N[C@@H](CC(=O)O)C(=O)O)NC(=O)[C@H](CC(C)(C)C)NC(=O)[C@H](CCCCN)NC(=O)[C@H](CCCNC(=N)N)NC(=O)[C@H]([C@@H](C)O)NC1=O) [((N-Me)G)-FC+TRK-((tBu)A)-(Pen)+YPD-OH]
5.3	46	[Sar]ICSRS[tBuAla]PPI[Pen]IP[PEG3]-OH (disulfide 3-11; N-terminus assumed; SMILES CC[C@H](C)[C@H](NC(=O)CNC)C(=O)N[C@H]1CSSC(C)(C)[C@@H](C(=O)N[C@H](C(=O)N2CCC[C@H]2C(=O)NCCOCCOCCOCCC(=O)O)[C@@H](C)CC)NC(=O)[C@H]([C@@H](C)CC)NC(=O)[C@@H]2CCCN2C(=O)[C@@H]2CCCN2C(=O)[C@H](CC(C)(C)C)NC(=O)[C@H](CO)NC(=O)[C@H](CCCNC(=N)N)NC(=O)[C@H](CO)NC1=O) [((N-Me)G)-IC+SRS-((tBu)A)-PPI-(Pen)+IP-(PEG2(13 atoms))-OH]
70	170	{(2S)‑2‑(morpholin-4-yl)propanoic acid}-ICSRSLP[Oic]I[Pen]IPD-OH (disulfide 2-10) [((2S)-2-(morpholin-4-yl)propanoic acid)-IC+SRSLP-(Oic)-I-(Pen)+IPD-OH]
1000	1000	{C18 diacid}-AICSRSLP[Oic]I[Pen]IPD[Orn]-OH (disulfide 3-11; SMILES CC[C@H](C)[C@H](NC(=O)[C@H](C)NC(=O)CCCCCCCCCCCCCCCCC(=O)O)C(=O)N[C@H]1CSSC(C)(C)[C@@H](C(=O)N[C@H](C(=O)N2CCC[C@H]2C(=O)N[C@@H](CC(=O)O)C(=O)N[C@@H](CCCN)C(=O)O)[C@@H](C)CC)NC(=O)[C@H]([C@@H](C)CC)NC(=O)[C@@H]2C[C@@H]3CCCC[C@@H]3N2C(=O)[C@@H]2CCCN2C(=O)[C@H](CC(C)C)NC(=O)[C@H](CO)NC(=O)[C@H](CCCNC(=N)N)NC(=O)[C@H](CO)NC1=O) [(ODD)-AIC+SRSLP-(Oic)-I-(Pen)+IPD-(Orn)-OH]
21	64	[Sar]ICSRS[Phe(2,5-diF)]PPI[Pen]IP[dE]-OH (disulfide 3-11; N-terminus assumed; SMILES CC[C@H](C)[C@H](NC(=O)CNC)C(=O)N[C@H]1CSSC(C)(C)[C@@H](C(=O)N[C@H](C(=O)N2CCC[C@H]2C(=O)N[C@H](CCC(=O)O)C(=O)O)[C@@H](C)CC)NC(=O)[C@H]([C@@H](C)CC)NC(=O)[C@@H]2CCCN2C(=O)[C@@H]2CCCN2C(=O)[C@H](Cc2cc(F)ccc2F)NC(=O)[C@H](CO)NC(=O)[C@H](CCCNC(=N)N)NC(=O)[C@H](CO)NC1=O) [((N-Me)G)-IC+SRS-((2,5-Difluoro)F)-PPI-(Pen)+IPe-OH]
7.5	1000	AICSRSLP[Pro(cis-4-CF3)]ICIPD-OH (disulfide 3-11; N-terminus assumed; SMILES CC[C@H](C)[C@H](NC(=O)[C@H](C)N)C(=O)N[C@H]1CSSC[C@@H](C(=O)N[C@H](C(=O)N2CCC[C@H]2C(=O)N[C@@H](CC(=O)O)C(=O)O)[C@@H](C)CC)NC(=O)[C@H]([C@@H](C)CC)NC(=O)[C@@H]2C[C@H](C(F)(F)F)CN2C(=O)[C@@H]2CCCN2C(=O)[C@H](CC(C)C)NC(=O)[C@H](CO)NC(=O)[C@H](CCCNC(=N)N)NC(=O)[C@H](CO)NC1=O) [AIC+SRSLP-((4-CF3)P)-IC+IPD-OH]
3.1	510	AICSRS[tBuAla]P[Pro(cis-4-CF3)]I[Pen]IPD-OH (disulfide 3-11; N-terminus assumed; SMILES CC[C@H](C)[C@H](NC(=O)[C@H](C)N)C(=O)N[C@H]1CSSC(C)(C)[C@@H](C(=O)N[C@H](C(=O)N2CCC[C@H]2C(=O)N[C@@H](CC(=O)O)C(=O)O)[C@@H](C)CC)NC(=O)[C@H]([C@@H](C)CC)NC(=O)[C@@H]2C[C@H](C(F)(F)F)CN2C(=O)[C@@H]2CCCN2C(=O)[C@H](CC(C)(C)C)NC(=O)[C@H](CO)NC(=O)[C@H](CCCNC(=N)N)NC(=O)[C@H](CO)NC1=O) [AIC+SRS-((tBu)A)-P-((4-CF3)P)-I-(Pen)+IPD-OH]
526	1000	AICSRSLPP[(3-Chloro-Ph)G]CIPD-OH (disulfide 3-11; N-terminus assumed; SMILES CC[C@H](C)[C@H](NC(=O)[C@H](C)N)C(=O)N[C@H]1CSSC[C@@H](C(=O)N[C@H](C(=O)N2CCC[C@H]2C(=O)N[C@@H](CC(=O)O)C(=O)O)[C@@H](C)CC)NC(=O)[C@H](c2cccc(Cl)c2)NC(=O)[C@@H]2CCCN2C(=O)[C@@H]2CCCN2C(=O)[C@H](CC(C)C)NC(=O)[C@H](CO)NC(=O)[C@H](CCCNC(=N)N)NC(=O)[C@H](CO)NC1=O) [AIC+SRSLPP-((3-Chloro-Ph)G)-C+IPD-OH]
14	330	[Sar]ICSRS[2‑Amino‑5,5,5‑trifluoro‑4‑methyl‑pentanoic acid]PPI[Pen]IPD-OH (disulfide 3-11) [((N-Me)G)-IC+SRS-(2-Amino-5,5,5-trifluoro-4-methyl-pentanoic acid)-PPI-(Pen)+IPD-OH]
7	150	[Sar]ICSRSLP[Oic]I[Pen]IP[Aad]-OH (disulfide 3-11; N-terminus assumed; SMILES CC[C@H](C)[C@H](NC(=O)CNC)C(=O)N[C@H]1CSSC(C)(C)[C@@H](C(=O)N[C@H](C(=O)N2CCC[C@H]2C(=O)N[C@@H](CCCC(=O)O)C(=O)O)[C@@H](C)CC)NC(=O)[C@H]([C@@H](C)CC)NC(=O)[C@@H]2C[C@@H]3CCCC[C@@H]3N2C(=O)[C@@H]2CCCN2C(=O)[C@H](CC(C)C)NC(=O)[C@H](CO)NC(=O)[C@H](CCCNC(=N)N)NC(=O)[C@H](CO)NC1=O) [((N-Me)G)-IC+SRSLP-(Oic)-I-(Pen)+IP-(AAD)-OH]
17	20	[Sar]ICSRS[Phe(2,5-diF)]PPI[Pen]IPD[dD]-OH (disulfide 3-11; N-terminus assumed; SMILES CC[C@H](C)[C@H](NC(=O)CNC)C(=O)N[C@H]1CSSC(C)(C)[C@@H](C(=O)N[C@H](C(=O)N2CCC[C@H]2C(=O)N[C@@H](CC(=O)O)C(=O)N[C@H](CC(=O)O)C(=O)O)[C@@H](C)CC)NC(=O)[C@H]([C@@H](C)CC)NC(=O)[C@@H]2CCCN2C(=O)[C@@H]2CCCN2C(=O)[C@H](Cc2cc(F)ccc2F)NC(=O)[C@H](CO)NC(=O)[C@H](CCCNC(=N)N)NC(=O)[C@H](CO)NC1=O) [((N-Me)G)-IC+SRS-((2,5-Difluoro)F)-PPI-(Pen)+IPDd-OH]
4.4	24	[dA]ICSRS[tBuAla]P[Pro(4-spirocPr)]I[Pen]IP[dE]-OH (disulfide 3-11; N-terminus assumed; SMILES CC[C@H](C)[C@H](NC(=O)[C@@H](C)N)C(=O)N[C@H]1CSSC(C)(C)[C@@H](C(=O)N[C@H](C(=O)N2CCC[C@H]2C(=O)N[C@H](CCC(=O)O)C(=O)O)[C@@H](C)CC)NC(=O)[C@H]([C@@H](C)CC)NC(=O)[C@@H]2CC3(CC3)CN2C(=O)[C@@H]2CCCN2C(=O)[C@H](CC(C)(C)C)NC(=O)[C@H](CO)NC(=O)[C@H](CCCNC(=N)N)NC(=O)[C@H](CO)NC1=O) [aIC+SRS-((tBu)A)-P-((6S)-5-Azaspiro[2.4]heptane-6-carboxylic acid)-I-(Pen)+IPe-OH]
